The assay has as its target T1, GFP-C9orf72 (human, UniProt Q96LT7-1 1-481).
T1 sequence: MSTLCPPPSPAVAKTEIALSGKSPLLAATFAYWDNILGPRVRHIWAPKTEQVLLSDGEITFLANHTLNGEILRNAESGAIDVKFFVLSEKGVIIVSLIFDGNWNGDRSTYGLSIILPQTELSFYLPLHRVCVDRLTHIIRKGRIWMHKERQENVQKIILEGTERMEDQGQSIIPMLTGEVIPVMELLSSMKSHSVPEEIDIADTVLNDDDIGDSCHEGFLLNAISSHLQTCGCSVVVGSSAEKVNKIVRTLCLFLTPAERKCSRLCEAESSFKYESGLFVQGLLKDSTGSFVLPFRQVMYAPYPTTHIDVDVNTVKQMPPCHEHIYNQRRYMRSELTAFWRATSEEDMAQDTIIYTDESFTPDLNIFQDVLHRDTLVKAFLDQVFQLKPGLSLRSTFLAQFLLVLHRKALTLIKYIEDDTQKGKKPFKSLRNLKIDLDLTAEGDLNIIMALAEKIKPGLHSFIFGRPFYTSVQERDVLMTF
Briefly: co-IP.

B1: SMCR8-tdTomato (natural protein)
chain: MISAPDVVAFTKEEEYEEEPYNEPALPEEYSVPLFPFASQGANPWSKLSGAKFSRDFILISEFSEQVGPQPLLTIPNDTKVFGTFDLNYFSLRIMSVDYQASFVGHPPGSAYPKLNFVEDSKVVLGDSKEGAFAYVHHLTLYDLEARGFVRPFCMAYISADQHKIMQQFQELSAEFSRASECLKTGNRKAFAGELEKKLKDLDYTRTVLHTETEIQKKANDKGFYSSQAIEKANELASVEKSIIEHQDLLKQIRSYPHRKLKGHDLCPGEMEHIQDQASQASTTSNPDESADTDLYTCRPAYTPKLIKAKSTKCFDKKLKTLEELCDTEYFTQTLAQLSHIEHMFRGDLCYLLTSQIDRALLKQQHITNFLFEDFVEVDDRMVEKQESIPSKPSQDRPPSSSLEECPIPKVLISVGSYKSSVESVLIKMEQELGDEEYKEVEVTELSSFDPQENLDYLDMDMKGSISSGESIEVLGTEKSTSVLSKSDSQASLTVPLSPQVVRSKAVSHRTISEDSIEVLSTCPSEALIPDDFKASYPSAINEEESYPDGNEGAIRFQASISPPELGETEEGSIENTPSQIDSSCCIGKESDGQLVLPSTPAHTHSDEDGVVSSPPQRHRQKDQGFRVDFSVENANPSSRDNSCEGFPAYELDPSHLLASRDISKTSLDNYSDTTSYVSSVASTSSDRIPSAYPAGLSSDRHKKRAGQNALKFIRQYPFAHPAIYSLLSGRTLVVLGEDEAIVRKLVTALAIFVPSYGCYAKPVKHWASSPLHIMDFQKWKLIGLQRVASPAGAGTLHALSRYSRYTSILDLDNKTLRCPLYRGTLVPRLADHRTQIKRGSTYYLHVQSMLTQLCSKAFLYTFCHHLHLPTHDKETEELVASRQMSFLKLTLGLVNEDVRVVQYLAELLKLHYMQESPGTSHPMLRFDYVPSFLYKI
What is called stoichiometry N is the number of molecules, sites or subunits per partner or assembly. Regarding B1, the “stoichiometry N” value is roughly 1.
